Data from PMC5469345, “High Sensitivity Determination of TNF-α for Early Diagnosis of Neonatal Infections with a Novel and Reusable Electrochemical Sensor”.

Target: TNF-α (UniProt P01375 77-233)
Experiment: electrochemical sensor (CV/EIS/DPV), displacement of aptamer from capture probe; aptamer pre-hybridized to capture probe T1 on gold electrode; 0.01 M PBS, 37 °C; TNF-α incubation in 0.01 M PBS pH 7.4, 37 °C, 2 h (1 h optimal); binding buffer listed as 10 mM Tris-HCl pH 7.4, 10 mM KCl, 10 mM MgCl2; DPV in 10x PBS
Conditions: protein: commercial; chain copies: 3; single strand; on the sensor pre-hybridized to thiolated capture probe T1 (S1), from which TNF-α displaces it

Sequence of TNF-α (P01375 77-233): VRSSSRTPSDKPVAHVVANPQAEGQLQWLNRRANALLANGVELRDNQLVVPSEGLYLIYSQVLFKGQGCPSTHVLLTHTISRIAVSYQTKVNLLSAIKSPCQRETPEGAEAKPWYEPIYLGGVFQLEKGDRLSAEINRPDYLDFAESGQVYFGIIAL

Binder: TTTTTTTTTTTTTTTTGGTGGATGGCGCAGTCGGCGACAA (ssDNA) [TNF-α aptamer (T2)]
- binding result: binds
